The source of these data is patent publication US20190160148A1, “COMBINATION OF PEMBROLIZUMAB AND ABEMACICLIB FOR THE TREATMENT OF CANCER” (Eli Lilly and Company, priority 2016, published 2019).

Assay [1] concerns CT26 syngeneic tumors. The experiment in a line: CT26 syngeneic tumor growth, concurrent dosing. As to conditions: day 24; abemaciclib 50 mg/kg for 21 days; 178G7 500 μg/dose 1 time per week, 3 doses; versus vehicle. Type of assay: in vivo, Balb/C mice. From the text: CT26 is also a well-known model for immunotherapy. Studies have shown it to be sensitive to inhibitors of a co-inhibitory immune checkpoint including, CTLA-4, PD-1, PD-L1 blockade. Established sensitivity of CT26, and well known range of therapeutic efficacy of immunotherapeutic intervention make it an appropriate model for screening the activity of checkpoint immunotherapies (Grosso and Jure-Kunkel, Cancer Immunity Vol. 13, p. 5, January 2013) (Duraiswamy et al, Cancer Research, Jun. 15, 2013 73; 3591).
CT26 is a murine model, and accordingly, antibodies used in the CT26 model must bind the mouse target protein. […]
Relative changes in tumor volume compared to control are analyzed at day 24, at the point where the most animals remained in all groups for proper statistical comparison. Relative changes in tumor volume (% ΔT/C) are calculated using the formula % ΔT/C=100×ΔT/ΔC, whereby T=mean tumor volume of the compound treated group, ΔT=mean tumor volume of the compound treated group minus the mean tumor volume on the baseline day, C=mean tumor volume of the control (vehicle) group, and ΔC=mean tumor volume of the control group minus the mean tumor volume on the baseline day. […]

Assay [2] addresses PD-L1/PD-1 interaction (Mus musculus, UniProt Q9EP73). The assay can be described thus: Blockade of PD-1 binding to PD-L1. As to conditions: anti-murine PD-L1 clone. From the text:
CT26 is a murine model, and accordingly, antibodies used in the CT26 model must bind the mouse target protein. To model co-inhibitory immune checkpoint therapy, in particular blockade of PD-L1/PD-1 mediated inhibition, anti-murine PD-L1 clone, 178G7 (Known herein in the examples as: anti-PD-L1 antibody or anti-PD-L1 therapy or anti-PD-L1), is produced. The HC of 178G7 is SEQ ID NO: 11, and the LC of 178G7 is SEQ ID NO: 12. […] In particular, 178G7 is used as a a surrogate agents that prevent PD-1 mediated inhibition by PD-L1. as both 178G7 and pembrolizumab block the interaction of PD-1 and PD-L1. 178G7 competes with previously identified surrogate antibody 10F.9G2 known to block PD-L1/PD-1 interaction and is a known surrogate for anti-human antibodies in the clinic (Eppihimer et al. Microcirculation 2002:9(2):133).

Chain of PD-L1/PD-1 interaction (Q9EP73 19-290): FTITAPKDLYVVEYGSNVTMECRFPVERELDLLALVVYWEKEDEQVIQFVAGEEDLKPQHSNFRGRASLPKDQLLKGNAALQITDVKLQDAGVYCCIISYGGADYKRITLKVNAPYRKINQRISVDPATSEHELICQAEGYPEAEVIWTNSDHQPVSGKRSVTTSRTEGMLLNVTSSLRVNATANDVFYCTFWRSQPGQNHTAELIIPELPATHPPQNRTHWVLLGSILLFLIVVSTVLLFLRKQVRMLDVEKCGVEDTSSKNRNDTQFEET

For the molecule `CCN1CCN(Cc2ccc(Nc3ncc(F)c(-c4cc(F)c5nc(C)n(C(C)C)c5c4)n3)nc2)CC1` [abemaciclib, [5-(4-ethyl-piperazin-1-ylmethyl)-pyridin-2-yl]-[5-fluoro-4-(7-fluoro-3-isopropyl-2-methyl-3H-benzoimidazol-5-yl)-pyrimidin-2-yl]-amine], in assay [1], the “%T/C (relative change in tumor volume compared to control)” value is 22.3%.

B1: Anti-PD-L1 antibody: anti-murine PD-L1 clone 178G7, HC SEQ ID NO: 11, LC SEQ ID NO: 12; surrogate that blocks PD-1/PD-L1 interaction (antibody)
heavy: QVQLQQSGADLAKPGSSVKISCKASGYNFNSYYINWIKQTTGQGLEYIGYINTVSGTTKYSEKFKGKATLTVDKSSSTAFMQLSSLTPDDSAVYYCARGTIVLDDYWGQGVKVTVSSAETTAPSVYPLAPGTALKSNSMVTLGCLVKGYFPEPVTVTWNSGALSSGVHTFPAVLQSGLYTLTSSVTVPSSTWPSQTVTCNVAHPASSTKVDKKIVPRNCGGDCKPCICTGSEVSSVFIFPSKPKDVLTITLTPKVTCVVVDISQDDPEVHFSWFVDDVEVHTAQTRPPEEQFNSTFRSVSELPILHQDWLNGRTFRCKVTSAAFPSPIEKTISKPEGRTQVPHVYTMSPTKEEMTQNEVSITCMVKGFYPPDIYVEWQMNGQPQENYKNTPPTMDTDGSYFLYSKLNVKKEKWQQGNTFTCSVLHEGLHNHHTEKSLSHSPGK
light: DIVMTQTPSSQAVSAGEKVTMSCKSSQSLLYNEKKKNYLAWYQQKPGQSPKLLIYWASTRESGVPDRFLGSGSGTDFTLTINSVQAEDLAVYYCQQSYDFPRTFGGGTKLELKRADAAPTVSIFPPSTEQLATGGASVVCLMNNFYPRDISVKWKIDGTERRDGVLDSVTDQDSKDSTYSMSSTLSLTKADYESHNLYTCEVVHKTSSSPVVKSFNRNEC
On to B1, for which the “blocking of PD-1 binding to PD-L1” value in assay [2] is on record as “blocks PD-1 binding to PD-L1”. For the same molecule, the “%T/C (relative change in tumor volume compared to control)” value in assay [1] worked out at 56.1%.
